Results: publication PMC4145081 (2014)

What was measured:
[1] = target: EV71 mature virions (human enterovirus 71 (EV71))
[2] = target: EV71 mature virions (human enterovirus 71 (EV71)); remark: listed apart in the source
[3] = target: human SCARB2 on 293A-hSCARB2 cells pretreated with PNGase F (human) (UniProt Q14108)
[4] = target: human SCARB2 on 293A-hSCARB2 cells pretreated with PNGase F (human) (UniProt Q14108); assay: flow cytometry on cells; binding of EV71 to 293A-hSCARB2 cells pretreated with or without PNGase F; details in the Extended Experimental Procedures
[5] = target: T1, EV71 mature virions (human enterovirus 71 (EV71)); assay: ITC
T1 chain 1: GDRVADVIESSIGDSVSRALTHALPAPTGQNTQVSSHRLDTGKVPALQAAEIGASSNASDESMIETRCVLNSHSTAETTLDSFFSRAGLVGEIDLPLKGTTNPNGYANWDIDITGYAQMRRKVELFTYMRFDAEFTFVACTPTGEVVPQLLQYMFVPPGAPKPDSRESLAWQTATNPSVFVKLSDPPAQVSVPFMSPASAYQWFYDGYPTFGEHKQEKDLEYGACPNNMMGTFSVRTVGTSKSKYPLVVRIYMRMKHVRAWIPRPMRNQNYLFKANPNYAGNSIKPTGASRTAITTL
T1 chain 2: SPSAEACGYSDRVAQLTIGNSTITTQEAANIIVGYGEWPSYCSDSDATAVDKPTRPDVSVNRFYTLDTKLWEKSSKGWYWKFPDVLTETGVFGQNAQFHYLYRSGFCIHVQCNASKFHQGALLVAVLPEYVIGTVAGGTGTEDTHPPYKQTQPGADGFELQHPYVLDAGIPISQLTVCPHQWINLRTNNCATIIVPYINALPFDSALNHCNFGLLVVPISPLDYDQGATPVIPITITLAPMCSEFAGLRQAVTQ
T1 chain 3: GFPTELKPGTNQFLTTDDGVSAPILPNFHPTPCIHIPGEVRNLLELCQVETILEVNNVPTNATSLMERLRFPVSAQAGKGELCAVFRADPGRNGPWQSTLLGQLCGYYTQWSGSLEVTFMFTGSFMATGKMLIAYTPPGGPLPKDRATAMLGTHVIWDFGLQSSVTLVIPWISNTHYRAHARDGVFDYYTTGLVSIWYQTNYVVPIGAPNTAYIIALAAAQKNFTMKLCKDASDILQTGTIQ
T1 chain 4: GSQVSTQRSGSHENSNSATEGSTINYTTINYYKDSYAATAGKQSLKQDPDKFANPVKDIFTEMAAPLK

Sequence of human SCARB2 on 293A-hSCARB2 cells pretreated with PNGase F (human) (Q14108 whole entry): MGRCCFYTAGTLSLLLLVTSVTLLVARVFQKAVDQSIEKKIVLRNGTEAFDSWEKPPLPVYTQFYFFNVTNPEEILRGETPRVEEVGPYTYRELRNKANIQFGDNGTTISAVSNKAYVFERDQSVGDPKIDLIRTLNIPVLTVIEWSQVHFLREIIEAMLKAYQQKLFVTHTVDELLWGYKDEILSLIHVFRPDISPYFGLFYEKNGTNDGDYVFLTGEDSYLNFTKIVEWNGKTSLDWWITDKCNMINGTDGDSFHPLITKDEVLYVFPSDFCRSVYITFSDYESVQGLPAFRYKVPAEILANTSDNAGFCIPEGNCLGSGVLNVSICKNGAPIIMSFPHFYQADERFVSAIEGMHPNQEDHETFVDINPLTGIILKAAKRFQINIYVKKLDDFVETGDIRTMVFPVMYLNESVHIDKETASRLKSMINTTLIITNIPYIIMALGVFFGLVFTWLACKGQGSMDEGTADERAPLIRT

Q: Which results are given for “recombinant SCARB2-His-tag protein (ectodomain of scavenger receptor class B 2)”?
A: [3H]-labeled sphingosine removed from EV71 mature virions by excess recombinant SCARB2 (60:1) at pH 5.0, 37°C, 1-4 h [1]: 90%; conversion of mature virions (~160 S) into ~125 S particles (A particles) by sedimentation velocity AUC after 1 h at 37°C with SCARB2 at pH 7.4 [2]: 5%

Q: Which results are given for EV71 mature virions (complex)?
A: decrease in infection efficiency of EV71-GFP on 293A-hSCARB2 cells pretreated with PNGase F, against untreated cells (GFP-positive cells 16 h post infection) [3]: 40%; reduction of binding against untreated cells [4]: 30%

Q: Which Kd [5] does the source give for WSQVHFLREIIEAMLKAYQQK [synthesized peptide of SCARB2 (aa 146-166)] here?
A: The Kd was 4.2 µM.
